Values joined by “and” are separate entries in the source; they are usually repeats but may differ in a detail not shown here. Equal values may be shown once. Each block holds one binder with its values, some of them ahead of it.
Target: T1, human Claudin18.2 (human)
T1 construct: also called CLDN18.2
Test: cell ELISA, Claudin18.2-expressing HEK293T cells
Protocol: To determine protein binding EC₅₀ by Cell ELISA, 96-well U-bottom microplates were pre-blocked with blocking buffer (5% MPBS, 1×PBS with 5% skim milk) overnight at 4° C. On the next day, the Claudin18.2-expressing HEK293T stable cell line was suspended at 1.5×10⁶ cells/ml in blocking buffer, added to the plate in 100 μl/well and incubated at room temperature for 1 hour.
Raw data were plotted with GraphPad Prism v6.02 software with four parameters, best-fit value program to analyze the EC₅₀.

B1: 222B6G5 (antibody, V domains shown)
VH: QTYLQQSGAELVRSGASVKMSCKASGYTFTSYNIHWVKQTPGQGLEWIGYISPGNGGTYYNLKFKDKATLTTATSSSTAYMQISSLTSEDSAVYFCATGRGFAYWGQGTLVTVSA
VL: DIVMTQSPSSLTVTPGEKVTMSCKSSQSLFNSGNQKNYLIWYQQKPGQPPKLLIYRASTRDSGVPDRFTGSGSGTDFTLTISNVQAEDLAVYYCQNDYSYPLTFGAGTKLELK
notes: mouse hybridoma mAb; also called 222B6G5-2
EC50: 1.13 nM and 1.38 nM

B2: 280F3B6 (antibody, V domains shown)
VH: QAYLQQSGAELVRSGASVKMSCKASGYTFTSHNMHWVKQTPGQGLEWIGYIYPGNGGTNYNQKFKGKATLTADTSSSTAYMQISSLTSEDSAVYFCTRDYYGNSFAYWGQGTLVTVSA
VL: DIVMTQSPSSLTEKAGERVSMSCKSSQSLFNSGNQKNYLTWYQQKPGQPPKLLIYWASTRESGVPDRFTGSGSGTDFTLTISSVQAEDLAVYYCQNDYWYPFTFGAGTKLELK
notes: mouse hybridoma mAb
EC50: 0.582 nM

B3: 242H12D6 (antibody, V domains shown)
VH: QAYLQQSGAELVRSGASVKMSCKASGYTFTSHNMHWVKQTPGQGLEWIGYIYPGNGGTNYNQKFKGKATLTADTSSSTAYMQINSLTSEDSAVYFCTRDYYGNSFAYWGQGTLVTVSA
VL: DIVMTQSPSSLTEKAGERVSMSCKSSQSLFNSGNQKNYLTWYQQKPGQPPKLLIYWASTRESGVPDRFTGSGSGTDFTLTISSVQAEDLAVYYCQNDYRYPFTFGAGTKLELK
notes: mouse hybridoma mAb
EC50: 0.744 nM

B4: 233D5E5 (antibody, V domains shown)
VH: QAYLQQSGAELVRSGASVKMSCKASGYTFTSHNMHWVKQTPRQGLEWIGYIYPGNGDTNYNQKFKGKATLTADTSSSTAYMQISSLTSEDSAVYFCTRDYYGNSFAYWGQGTLVTVSA
VL: DIVMTQSPSSLTEKAGERVSMSCKSSQSLFNSGNQKNYLTWYQQKPGQPPKLLIYWASTRESGVPDRFTGSGSGTDFTLTISSVQAEDLAVYYCQNAYWYPFTFGAGTKLELK
notes: mouse hybridoma mAb
EC50: 0.803 nM

B10: 231H4G11 (antibody, V domains shown)
VH: QAYLQQSGAELVRSGASVKMSCKASGYTFTSHNIHWVKQTPGQGLEWIGYISPGNGYTNYNQKFRGKATLTADTSSSTAYMQISSLTSEDSAVYFCTRDYYGNSFAYWGQGTLVTVSA
VL: DIVMTQSPSSLTEKAGERVSMSCKSSQSLFNSGSQKNYLTWYQQKPGQPPKLLIYWASTRESGVPDRFSGSGSGTDFTLTISSVQAEDLAVYYCQNNYWFPFTFGAGTKLELK
notes: mouse hybridoma mAb
EC50: 1.01 nM

B11: 243F6D2 (antibody, V domains shown)
VH: QAYLQQSGAELVRSGASVKMSCRASGYTFTSHNMHWVKQTPGQGLEWIGYIYPGNGGTYYNQKFKGKATLTADTSSSTAYMQISSLTSEDSAVYFCARDYYGNSFVYWGQGTLVTVSA
VL: DVVMTQSPSSLTEKTGEKVSMSCKSSQSLLNSGNQKNYLTWYQQKPGQPPKLLIYWASTRESGVPDRFTGSGSGTDFTLTISSLQTEDLAVYYCQNNYRYPFTFGAGTKLELK
notes: mouse hybridoma mAb
EC50: 0.96 nM

B16: 240D6F5 (antibody, V domains shown)
VH: QAYLQQSGAELVRSGASVKMSCKASGYTFTSHNMHWVKQTPGQGLEWIGYIYPGNGGTNYNQKFKGKATLTADPSSSTAYMQINSLTSEDSAVYFCTRDYYGNSFAYWGQGTLVTVSA
VL: DIVMTQSPSSLTEKAGERVSMSCKSSQSLFNSGNQKNYLTWYQQKPGQPPKLLIYWASTRESGVPDRFTGSGSGTDFTLTISSVQAEDLAVYYCQNDYRYPFTFGAGTKLELK
notes: mouse hybridoma mAb
EC50: 1.77 nM

B18: 257B1G9 (antibody, V domains shown)
VH: QAYLQQSGAELVRSGASVKMSCKASGYTFTSHNMHWVKQTPGQGLEWIGYIYPGNGGTNYNQKFKGKATLTADTSSSTAYMQISSLTSEDSAVYFCTRDYYGNSFAYWGQGTLVTVSA
VL: DIVMTQSPSSLTERAGERVSMSCKSSQSLFNSGNQKNYLTWYQQKPGQPPKLLIYWASTRESGVPDRFTGSGSGTDFTLTISSVQAEDLAVYYCQNDYRYPFTFGAGTKLELK
notes: mouse hybridoma mAb
EC50: 0.948 nM

B21: 257F1E11 (antibody, V domains shown)
VH: QAYLQQSGAELVRSGASVKMSCKASGYTFTSHNIHWVKQTPRQGLEWIGYIYPGNGGTNYNQKFKGKATLTADTSSSTAYMQISSLTSEDSAVYFCTRDYYGNSFAYWGQGTLVTVSA
VL: DIVMTQSPSSLTEKAGERVSMSCKSSQSLFNSGNQKNYLTWYQQKPGQPPKLLIYWASTRESGVPDRFTGSGSGTDFTLTISSVQAEDLAIYYCQNDYWYPFTFGAGTKLELK
notes: mouse hybridoma mAb
EC50: 57.8 nM

The remaining lines, values ahead:

EC50: 0.63 nM
B5: 235A10C9 (antibody, V domains shown)
VH: QAYLQQSGAELVRSGASVKMSCKASGYTFASHNMHWVKQTPGQGLEWIGYIYPGNSGTKYNQKFTGKATLTADTSSSTAYMQITSLTSEDSAVYFCARDYYGNSFAYWGQGTLVTVSA
VL: DIVMTQSPSSLTEKAGEKVSMRCKSSQSLLNSGNQKNYLTWYQQKPGQPPKLLIYWASTRESGVPDRFTGSGSGTDFTLTISSVQADDLAVYYCQNDYMFPFTFGAGTKLELK
notes: mouse hybridoma mAb

EC50: 0.57 nM
B6: 234E1F12 (antibody, V domains shown)
VH: QAYLQQSGAELVRSGASVKMSCKASGYTFTSHNMHWVKQTPRQGLEWIGYIYPGNGDTNYNQKFKGKATLTADTSSSTAYMQISSLTSEDSAVYFCTRDYYGNSFAYWGQGTLVTVSA
VL: DIVMTQSPSSLTEKAGERVSMSCKSSQSLFNSGNQKNYLTWYQQKPGQPPKLLIYWASTRESGVPDRFTGSGSGTDFTLTISSVQAEDLAVYYCQNAYWYPFTFGAGTKLELK
notes: mouse hybridoma mAb

EC50: 0.53 nM
B7: 252F1B10 (antibody, V domains shown)
VH: QAYLQQSGAELVRSGASVKMSCKASGYTFTSHNMHWVKQTPGQGLEWIGYIYPGNGGTNYNQKFKGKATLTADTSSSTAYMQINSLTSEDSAVYFCTRDYYGNSFAYWGQGTLVTVSA
VL: DIVMTQSPSSLTEKAGERVSMSCKSSQSLFNSGNQKNYLTWYQQKPGQPPKLLIYWASTRESGVPDRFTGSGSGTDFTLTISSVQAEDLAVYYCQNDYRYPFTFGAGTKLELK
notes: mouse hybridoma mAb

EC50: 0.738 nM
B8: 232D7C8 (antibody, V domains shown)
VH: QAYLQQSGAELVRSGASVKMSCKASGYTFTSHNMHWVKQTPGQGLEWIGYIYPGNGGTNYNQKFKGKATLTADTSSSTAYMQISSLTSEDSAVYFCARDYFGNSFAYWGQGTLVTVSA
VL: DILMTQSPSSLTATAGEKVSMSCKSSQSLFNSGNQRNYLTWYQQRPGQPPKLLIYWASTRESGVPDRFTGSGSGTDFTLTISSVQAEDLAVYYCQNDYRYPFTFGAGTKLELK
notes: mouse hybridoma mAb

EC50: 0.562 nM
B9: 234C9G5 (antibody, V domains shown)
VH: QAYLQQSGAELVRSGASVKMSCKASGYAFTSHNMHWVKQTPGQGLEWIGYISPGNGYTNYNQKFRGKATLTADTSSSTAYMQIGSLTSEDSAVYFCTRDYYGNSFAYWGQGTLVTVSA
VL: DIVMTQSPSSLTEKAGERVSMSCKSSQSLFNSGNQKNYLTWYQQKPGQPPKLLIYWASTRESGVPDRFTGSGSGTDFTLTISSVQAEDLAVYYCQNNYWFPFTFGAGTKLELK
notes: mouse hybridoma mAb

EC50: ~0.439 nM
B12: 244A1B8 (antibody, V domains shown)
VH: QAYLQQSGAELVRSGASVKMSCKASGYTFTSHNIHWVKQTPGQGLEWIGYIYPGNGAPNYNQKFRGKATLTADTSSSTAYMQISSLTSEDSAVYFCARDYYGNSFVYWGQGTLVTVSA
VL: DIVMTQSPSSLTEKAGEKVSMSCKSSQSLLNSGNQKNYLTWYQQKPGQPPKLLIYWASTRESGVPDRFTGSGSGTDFTLTISSVQAEDLAVYYCQNDYRYPFTFGAGTKLELK
notes: mouse hybridoma mAb

EC50: 0.199 nM
B13: 250F4G4 (antibody, V domains shown)
VH: QAYLQQSGAELVRSGASVKMSCKASGYTFTSHNMHWVKQTPGQGLEWIGYIYPGNGRTNYNQKFKGKATLTADTSSSTAYMQISSLTSEDSAVYFCTRDYYGNSFAYWGQGTLVTVSA
VL: DIVMTQSPSSLTEKVGERVSMSCKSSQSLFNSGNQKNYLTWYQQKPGQPPKLLIYWASTRESGVPDRFTGSGSGTDFTLTISSVQAEDLAVYYCQNDYWYPFTFGAGTKLELK
notes: mouse hybridoma mAb

EC50: 0.732 nM
B14: 239H12G9 (antibody, V domains shown)
VH: QAYLQQSGAELVRSGASVKMSCKASGYTFTSHNIHWVKQTPGQGLEWIGYIYPGNGAPNYNQKFRGKATLTADTSSSTAYMQISSLTSEDSAVYFCARDYYGNSFVYWGQGTLVTVSA
VL: DIVMTQSPSSLTEKAGEKVSMSCKSSQSLLNSGNQKNYLTWYQQKPGQPPKLLIYWASTRESGVPDRFTGSGSGTDFTLTISSVQAEDLAVYYCQNDYRYPFTFGAGTKLELK
notes: mouse hybridoma mAb

EC50: 0.415 nM
B15: 250F4G1 (antibody, V domains shown)
VH: QAYLQQSGAELVRSGASVKMSCKASGYTFTSHNMHWVKQTPGQGLEWIGYIYPGNGRTNYNQKFKGKATLTADTSSSTAYMQISSLTSEDSAVYFCTRDYYGNSFAYWGQGTLVTVSA
VL: DIVMTQSPSSLTEKVGERVSMSCKSSQSLFNSGNQKNYLTWYQQKPGQPPKLLIYWASTRESGVPDRFTGSGSGTDFTLTISSVQAEDLAVYYCQNDYWYPFTFGAGTKLELK
notes: mouse hybridoma mAb

EC50: ~0.411 nM
B17: 243B4F7 (antibody, V domains shown)
VH: QAYLQQSGAELVRSGASVKMSCKASGYTFTSHNLHWVKQTPGQGLEWIGYIYPGNGNTNYNQKFKGKATLTADTSSSTAYMQISSLTSEDSAVYFCTRDYYGNSFAYWGQGTLVTVSA
VL: DIVMTQSPSSLTEKAGERVSMSCKSSQSLFNSGNQKNYLTWYQQKPGQPPKLLIYWASTRESGVPDRFTGSGSGTDFTLTISSVQAEDLAVYYCQNNYWFPFTFGAGTKLELK
notes: mouse hybridoma mAb

EC50: 0.684 nM
B19: 243B4F2 (antibody, V domains shown)
VH: QAYLQQSGAELVRSGASVKMSCKASGYTFTSHNLHWVKQTPGQGLEWIGYIYPGNGNTNYNQKFKGKATLTADTSSSTAYMQISSLTSEDSAVYFCTRDYYGNSFAYWGQGTLVTVSA
VL: DIVMTQSPSSLTEKAGERVSMSCKSSQSLFNSGNQKNYLTWYQQKPGQPPKLLIYWASTRESGVPDRFTGSGSGTDFTLTISSVQAEDLAVYYCQNNYWFPFTFGAGTKLELK
notes: mouse hybridoma mAb

EC50: 0.729 nM
B20: 256C3D3 (antibody, V domains shown)
VH: QAYLQQSGAELVRSGASVKMSCKASGYAFTSHNMHWVKQTPGQGLEWIGYISPGNGYTNYNQKFRGKATLTADTSSSTAYMQIGSLTSEDSAVYFCTRDYYGNSFAYWGQGTLVTVSA
VL: DIVMTQSPSSLTEKAGERVSMSCKSSQSLFNSGNQKNYLTWYQQKPGQPPKLLIYWASTRESGVPDRFTGSGSGTDFTLTISSVQAEDLAVYYCQNNYWFPFTFGAGTKLELK
notes: mouse hybridoma mAb

From patent publication US20220073643A1 (NANJING GENSCRIPT BIOTECH, published 2022)
